Residue numbers refer to the chain shown, from its start.
Assay: Saturation mutagenesis of SEQ ID NO:109: dicamba decarboxylation activity of point mutants (CO2 released), fold of backbone (Tables 7, 8, Megatable 1)
Conditions: decarboxylation activity (CO2 released) of point mutant vs unmutated backbone protein; backbone SEQ ID NO: 109

B1: 33 (protein, listed as Rhizobium leguminosarum)
chain: MAQGKIALEEHFAIPETLQDSAGFVPGDYWKELSARLLDIQEKRLRLMDAHGIEKMILSLNAPAVQAIPDRAKALEISRRANDFLAEQCVKNPNRFLGFAALPLQDPDAATQELQRCVTTMGFVGALVNGFSQEGDGTTPLYYDLPQYRSFWAEVEKLNVPFYLHPRNPLPQDSRIYAGHSWLMGPTWAFAQETAVHALRLMGSGLFDEHPALRIIVGHMGEGLPYMMWRIDNRNAWVKVEKSYPAKRPIADYFNENFYITTSGNFRTQSLIDAMLEIGADRILFSADWPFENIDHAANWFDSATISEADRLKIGRTNAVSLFKLDR
Fold Activity: 1.6 fold

B2: 34 (protein)
chain: MAQGKIGLEEHFAIPETLNDSAGFVPGDYWKELSRRLLDIQDDRLRQMDENGMEMMLLSLNAPAVQAVPDRKQACELAVRANDFLAEQVSRRPDRFQALAALPLQDPDFATVELTRCVNELGMRGALVNGFSQIDTPDNVVYYDAPQYASFWAAVEKLDVPFYLHPRNPIASWAQIYDGHPWLLGPTWAFGQETAVHALRLMASGLFDRHPALQIVLGHLGEGLPYSLWRIDNRNAWVKAPKTHPAKKTFRHYFQQNFHLTTSGNFHNQTLIDAILEIGADRILFSTDWPFENIDHAAKWFDSASISEADRTKIGRTNAMKLFKLVA
modifications: Cupriavidus necator
Fold Activity: 1.6 fold

B3: 35 (protein)
chain: MAFKASRKIALEEHFAIDATVQDSAGFVPPSYWAELKRRLLDIHDRRIDEMDRNGVELMVLSLNAPTVQAVPNIKDAYDLSRRANDFLAEQIVKRPERFKGFAALPMQSPDLAARELERCVKELNFVGALVNGFSQVEESGTALYYDLPQYRQFWSVVQALDVPFYLHPRNPLPAHAPIYEGHPWLLGPTWAFGQETAVHALRLMGSGLFDEYPELKIILGHMGEGLPYSMWRIDNRNAWVETQPNYPAKKRIAEYFHKNFWLTTSGNFRTQTLIDAMLEIGSDRILFSTDWPFENVDHAAQWFDDAAISENDRIKIARTNAARLFKLEP
modifications: Burkholderia sp
Fold Activity: 2.2 fold

B4: 36 (protein, listed as Agrobacterium sp.)
chain: MAQGKVALEEHFAIPETLQDSAGFVPGDYWTELQHRLLDIQDTRLKLMDAHGIETMILSLNAPAVQAIPDKTKAIEIARRANDALAEECAKRPNRFLAFAALPLQDPDAATQELQRCVNDLGFVGALVNGFSQEGDGQIPLYYDLPQYRPFWGEVEKLDVPFYLHPRNPLPQDSRIYDGHPWLLGPTWAFAQETAVHALRLMASGLFDEHPRLNIILGHMGEGLPYMMWRIDHRNAWVKLPPRYPAKRRFVDYFNENFHITTSGNFRTQTLIDAILEIGADRILFSTDWPFENIDHASDWFHATSIAEADRVKIGRTNARRLFKLDGR
Fold Activity: 2 fold

B5: 37 (protein, listed as Burkholderia gladioli)
chain: MATFSNVKKIALEEHFAIAETIEDSAGFVPPDDWVELRGRLLDIQERRLAEMDRAGIELMVLSLNAPAVQAIRDPRQAVELARRANDYLAEQVARRPDRFRAFAALPMQAPEQAIREAERCVRELGFVGALVNGFSEAEDGAELYYDLPRYRPFWAALEALEVPFYLHPRNPLAGRAPIYDGHSWLMGPTWAFGQETAVHALRLMGSGLFDAHPRLQIILGHMGEGLPYSMWRVDNRNAWVSAKPNYPAEKPIAEYFRNNFWLTTSGNFRTQTLIDAMLEIGSDRILFSADWPFENMDHAADWFDHASISENDRIKIGRGNAERLLKLGR
Fold Activity: 1.6 fold

B6: 38 (protein, listed as Variovorax paradoxus)
chain: MAQGKIGLEEHFAIPQTLQDSAGFVPGVYWKELSSRLLDIHDGRLRQMDEHGMEMMILSLNAPAVQAVADPVKAYELAVRANDFLAEQVAKRPDRFQAFAALPMQDPEKATQELERCMSVLGFRGALVNGFSQVGTPDNVAYYDAPQYAPFWAAAERLDAPFYLHPRNPIASWAQIYEGHPWLLGPTWAFAQETAVHALRLMASGLFDRHPGLKIILGHLGEGLPYNMWRVDHRNAWVKAPKGYPAKRKLCEYFQENFYLTTSGNFRTQTLIDAMLEVGSDRILFSTDWPFENIDHASNWFNDTSISEADRKKIGRTNAMSLFKLA
Fold Activity: 1.8 fold

B7: 39 (protein, listed as Agrobacterium fabrum)
chain: B4 chain with Y29C, N94D, Q115R, I139T, N214D
Fold Activity: 1.6 fold

B8: 40 (protein, listed as Rhodococcus jostii)
chain: MAQGKIALEEHFAIPETLNDSAGFVPGTYWDELQARLLDIQDVRLKLMDEHNIETMILSLNAPAVQAIPERERAIDIARRANDVLAEECAKRPDRFRGFAALPLQDPDAAAEELRRCVTELGFVGALVNGFSQSATVDGGSTPLYYDLPRYRPFWAEVERLDVPFYLHPRNPLNQDARIYEGHPWLLGPTWAFAQETAVHALRLMASGLFDEHPGLRIVLGHMGEGIPAMLWRIDHRNAWVDVPPAYPAKRRMVDYFTENFFVTTSGNFRTQTLIDLLLELGSERVMFSTDWPFENINHAAEWFDAASISEADRLKIGRTNAATLFKLDR
Fold Activity: 1.4 fold

B9: 42 (protein)
chain: MAQGKIALEEHFAIPDTLQDSAGFVPGDYWKELSARLLDIHEQRLMQMDAYGIEKMILSLNAPAVQAIPDKAKALEISRRANDFLAEQCARNPDRFLGFAALPLQDPDAATAELQRCVKTLGFVGALVNGFSQEGDGVTPLYYDLPQYRGFWAEVEKLAVPFYLHPRNPLPQDSRIYAGHPWLMGPTWAFAQETAVHALRLVGSGLFDDHPALRIILGHMGEGLPYMMWRIDNRNAWVKVAPNYPAKRRIADYFNENFYITTSGNFRTQSLVDAMLEIGADRILFSTDWPFENIDHASDWFDTATISEADRLKIGRTNAATLFNLES
modifications: Agrobacterium radiobacter
Fold Activity: 1.7 fold

B10: 43 (protein, listed as Rhizobium leguminosarum)
chain: B1 chain with K31T, E42D, A50T, R71K, L75V, S150P, N159D, I294V
Fold Activity: 1 fold

B11: 44 (protein, listed as Mycobacterium avium)
chain: MARIITVEEHFQHPEVSARVAELTGPAVEGLAEFGNAFSLDPDSTARLGGNRLAHMDQVGIDVQVVSHGNGSPGTLQHPEAVELCRRVNNDLAAQIAENPDRFRGFATLPLYDPAAAAEELRRCVGDLGFVGALIAGSYDGLFLDDERFDPILTAAEAVDFPIYVHPGLPEAPVSQRYYAGSWPASVHMMFSGPAFGWHAEAGIHIVRLILSGALDRHPTLKLLSGHWGELAAFYLERLDETLGLLPTGLERAPSDYYRQQVWITPSGMYNQNQLNFMTAELGAQRIIYSEDFPYVVRDNVSTFLEQAGLSEADTHAIAHTNAEALLRI
Fold Activity: 0.7 fold

B12: 45 (protein)
chain: MANDDLAEVIAAHPDRFAGFAALPMRDPQAAAVELQRAVGTHGFCGAMINGLIEGRFLDDPAFAPLLSTAADLGVPLYLHPSFPPPQVAEIYFGGLAPVLGDLLATAGWGWHAETALHVLRLVATGVFDRLPELWVIVGHMGEMIPFALARIDTVLSPVAQLRQPVAQYFQTNVWFTTSGYTTFPPLQCALSTVGIDRLIFSVDYPYTDNTSARALLDTAPISPVDREKLAHGTVEALLRV
modifications: Mycobacterium sp
Fold Activity: 1.7 fold

B13: 46 (protein, listed as Rhodococcus opacus)
chain: MARIITLEEHYLDPAIAAASAPLARELSPDFAAAYDPASGLSYTPSAQVLQDLGQRRIADMDTHGISMQVLSCLTTQQVPADVAPDLVRAANDTAAAAVRAHPDRFAAFAALPTTAPDAAATELARCIDDLGFVGTMINGRTDGEFLDAPRFDPILATAAARNVPIYLHPAVPPRATSDSNYAGLAPLVTARLQTSAWGWHQETAVHFLHLVLSGVLDRYPNLQFILGHWGEMIPFYLDRLDEALPQAVTNLDRTISDYVRENVYITPSGMFNQAQLQYCVETLGVDRILYSVDYPFIGNDGAVSFLDEANLPDEAKHQIAHQNTEKLLGL
Fold Activity: 1.1 fold

B14: 47 (protein, listed as Serratia odorifera)
chain: MAKIICLEEHTLDKALVMASMPAALAQAPFLSDWGKTITDGNLPDRSRPQIEKNDLINVKGADIGRGRLDDMDEAGITMQVLSVGGFPHLISAAEGVDLNRAANDRLANAVNAHPDRFAAFATLPWAQPDAAEKELERAVKELGFKGALLNGRPSIHFLDHPDYDGLLARFNALGVPLYLHPGLPVRSVQQAYYSGFSDEVTARLSMFGWGWHHEAGIHLLRLILSGAFDKYPNLQVISGHWGEMLPFWLQRLDDSLPQAATGLRRTITQTFREQVYVTPSGMLTLPHFQFIYALLGAERILFSVDYPYQTLDGVKAFIQSLPVPEEAKEAIAFRNAERLFGLTS
Fold Activity: 1.2 fold

B15: 48 (protein, listed as Amycolatopsis mediterranei)
chain: MASMKLYGLEEHFVTADVIEAWRRRDPGLAEPMMKWAVASDITPALLDVDGGRIAAMDDAGIDTTVLSLTTPGLQNLDAAEAVALQAPTNDLIAAAVRRHPGRFQGFATLATSAPAAAADELRRAVTELGLNGALVNANSRGRALDAPGFWDIYEAAEDLRAPVYLHPGVPVPAVTEAYYRGFGEPVNSMLATGAFGWHYDAGLTILRMIVAGVFDRFPGLQVILGHWGEVVLFYLDRVAAMDKLTALRRPIAEYFRSNIFITPGGISSHKYLRWSLETVGVERIMYASDYPFNTERAGSARRFLDTAPVDEAGRERIAYRNWEELIAGIRR
Fold Activity: 1.5 fold

B16: 49 (protein, listed as Streptomyces sp.)
chain: MAKIIALEEHFSDPAVAKAGAARARALSPGFAASYSPASGLPYSPSPEVLENLAEKRLADMDAGGITMQVLSGLGAQTVPADVAPALVAGSNDKAAAAVRAHPDRFAAFAALPTATPEAAVAELDRSVNELGFVGTLIMGRTEGEFLDAPRFEPILARAAALKVPVFLHPGVPPREITDSNYAAGLPTGIGTRLQTAAWGWHQETAVHFLHLVHSGVLDRYPDLQFILGHWGEMIPFYLDRVDEALPQRATGLDRSFHEYFRENVYLAPSGMWSQAQLRFCLETVPLERIVFAVDYPFIGNEGAVPFLEKAELPQADKRKIAHENAERLLGL
Fold Activity: 2 fold
